Measurements taken from publication PMC8406295, “Highly Basic Clusters in the Herpes Simplex Virus 1 Nuclear Egress Complex Drive Membrane Budding by Inducing Lipid Ordering” (mBio, 2021).
* marks the point of attachment. MTSL = spin label, CC1(C)C=C(CS*)C(C)(C)N1[O]

T1: UL34^(174–194) peptide, unlabelled (herpes simplex virus 1 (HSV-1), UniProt P10218 174-194, N-terminally acetylated; C-terminally amidated)
T1 construct: also called UL34 MPR peptide; source: synthetic peptide, bought: Peptide 2.0
T1 peptide: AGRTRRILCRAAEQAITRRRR

T2: UL34^(174–194) peptide, spin-labelled at C182 (herpes simplex virus 1 (HSV-1), UniProt P10218 174-194, N-terminally acetylated; C-terminally amidated; MTSL spin label on the native cysteine C182)
T2 construct: also called UL34 MPR peptide; C182_(34); source: synthetic peptide, bought: Peptide 2.0
T2 peptide: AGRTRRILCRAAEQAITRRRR


Assays:
[1] = target: T1, UL34^(174–194) peptide, unlabelled; assay: cross-linking; SM(PEG)6 at 50-fold molar excess, 30 min at room temperature in PBS, with 1 mM POPC/POPS/POPA 3:1:1 SUVs; 50 μM peptide, or 25 μM each in mixtures; 16% Tris-tricine SDS-PAGE, Coomassie; conditions: both partners purified
[2] = target: T2, UL34^(174–194) peptide, spin-labelled …; assay: DEER (double electron-electron resonance) spectroscopy; MTSL spin-labelled peptides, approximately 50 μM peptide or 1:1 peptide mixture with POPC/POPS/POPA 3:1:1 SUVs, 1:200 P/L ratio, incubated 10 min at 25°C, frozen, measured at 60 K; conditions: both partners purified

Row | Binder | binding result [1] | binding result [2]
1 | Ac-RRSRSSAAGGTLGVVRRASRK-NH2 (source: synthetic peptide, bought: Peptide 2.0) [UL31^(22–42) peptide] | binds | 
2 | Ac-C(MTSL)RKSLPPHARK-NH2 (SMILES CC(=O)N[C@@H](CSSCC1=CC(C)(C)N([O])C1(C)C)C(=O)N[C@@H](CCCNC(=N)N)C(=O)N[C@@H](CCCCN)C(=O)N[C@@H](CO)C(=O)N[C@@H](CC(C)C)C(=O)N1CCC[C@H]1C(=O)N1CCC[C@H]1C(=O)N[C@@H](Cc1c[nH]cn1)C(=O)N[C@@H](C)C(=O)N[C@@H](CCCNC(=N)N)C(=O)N[C@@H](CCCCN)C(N)=O, also called mini-MPR with N-terminal cysteine; C40_(31); source: synthetic peptide, bought: Peptide 2.0) [UL31^(C40–50) peptide, spin-labelled] |  | binds
3 | Ac-RRSRSSAAGGTLGVVRRASRKC(MTSL)-NH2 (also called C43_(31); source: synthetic peptide, bought: Peptide 2.0) [UL31^(22–C43) peptide, spin-labelled] |  | binds
4 | Ac-RKSLPPHARK-NH2 (also called UL31 mini-MPR peptide; source: synthetic peptide, bought: Peptide 2.0) [UL31^(41–50) peptide] | binds | 
5 | Ac-C(MTSL)RRSRSSAAGGTLGVVRRASRK-NH2 (also called C21_(31); source: synthetic peptide, bought: Peptide 2.0) [UL31^(C21–42) peptide, spin-labelled] |  | binds
6 | Ac-RKSLPPHARKC(MTSL)-NH2 (SMILES CC(=O)N[C@@H](CCCNC(=N)N)C(=O)N[C@@H](CCCCN)C(=O)N[C@@H](CO)C(=O)N[C@@H](CC(C)C)C(=O)N1CCC[C@H]1C(=O)N1CCC[C@H]1C(=O)N[C@@H](Cc1c[nH]cn1)C(=O)N[C@@H](C)C(=O)N[C@@H](CCCNC(=N)N)C(=O)N[C@@H](CCCCN)C(=O)N[C@@H](CSSCC1=CC(C)(C)N([O])C1(C)C)C(N)=O, also called mini-MPR with C-terminal cysteine; C51_(31); source: synthetic peptide, bought: Peptide 2.0) [UL31^(41–C51) peptide, spin-labelled] |  | binds
